Experiment [1] has as its target T1, SARS-CoV-2 S protein ectodomain trimer, prefusion conformation, insect cell-expressed (SARS-CoV-2 Wuhan-Hu-1 (MN908947), UniProt P0DTC2, stabilised).
T1 construct: also called S trimer; trimeric S protein
Put plainly: SPR; […] (100 nM, 30 s) […]; 1:1 Langmuir fit. As to conditions: both partners purified. On the technique in general: SPR reads the build-up and loss of mass on a sensor chip optically.

Experiment [2] concerns the target T2, SARS-CoV-2 S protein ectodomain trimer in prefusion conformation (insect cell-expressed) (SARS-CoV-2 Wuhan-Hu-1 (MN908947), UniProt P0DTC2, stabilised).
T2 construct: also called trimeric SARS-CoV-2 S protein; S trimer
Put plainly: SPR; […] (100 nM) […]; 1:1 Langmuir fit. As to conditions: both partners purified.

B1: pT1616 (human monoclonal antibody, IgG1) (antibody, V domains shown)
VH: QVQLVQSGAEVKKPGSSVKVSCKASGGTFSSYTISWVRQAPGQGLECMGRIIPILGIANYAQKFQGRVTITADKSTSIAYMEVSSLRSEDTAVYYCATEVGYSGYGSAEYFNHWGQGTPVTVSS
VL: QSVLTQPPSVSGAPGQRVTISCTGSNSNIGAGYDVHWYQQLPGTAPKLLIYANNNRPSGVPDRFSGSRSGTSASLVITGLQADDEADYYCQSYDSSLTGSLFGGGTKLTVL
notes: also called bnAb pT1616; nAb pT1616; source: HEK293ExPi, transfected, purified from the supernatant (Protein G, SEC)
In experiment [1], B1 registered a Kd of 0.083 nM, a koff of 6.9e-05 s⁻¹ and a kon of 840000 M⁻¹ s⁻¹.

B2: pT1616 IgG1 (antibody, V domains shown)
VH: QVQLVQSGAEVKKPGSSVKVSCKASGGTFSSYTISWVRQAPGQGLECMGRIIPILGIANYAQKFQGRVTITADKSTSIAYMEVSSLRSEDTAVYYCATEVGYSGYGSAEYFNHWGQGTPVTVSS
VL: QSVLTQPPSVSGAPGQRVTISCTGSNSNIGAGYDVHWYQQLPGTAPKLLIYANNNRPSGVPDRFSGSRSGTSASLVITGLQADDEADYYCQSYDSSLTGSLFGGGTKLTVL
notes: also called bnAb pT1616; nAb pT1616; source: HEK293ExPi, transfected, purified from supernatant (Protein G, SEC)
In the case of B2, the “fold lower KD for the S trimer than for the monomeric RBD” value in experiment [2] was greater than 3 fold.

One may read the Kd as the constant that tells how readily two partners part at equilibrium. By koff is commonly meant the rate constant with which the complex falls apart. Low values mean slow dissociation, high ones fast dissociation. The kon is the second-order rate constant of association. Low readings indicate slow association, high ones fast association.
